Laboratory results from publication PMC6892922.

B1: Ehg1-Cub-LV [S. cerevisiae] / NubG-Fur4 [S. cerevisiae] (parent)
chain 1: MRSFVTNNDIPVGYVTPKFPSLYWPINNSKYNTAFLYYISDIWKFSLYWTLIFNGAFYVTAGVYASLTHRKKAGSVWIFVMYVLYGGVQGLTTGTVMGFLIGAIYRSGLFSMSTWVPLCCAVVQILFDVVLSYSMVGSVM
chain 2: MPDNLSLHLSGSSKRLNSRQLMESSNETFAPNNVDLEKEYKSSQSNITTEVYEASSFEEKVSSEKPQYSSFWKKIYYEYVVVDKSILGVSILDSFMYNQDLKPVEKERRVWSWYNYCYFWLAECFNINTWQIAATGLQLGLNWWQCWITIWIGYGFVGAFVVLASRVGSAYHLSFPISSRASFGIFFSLWPVINRVVMAIVWYSVQAYIAATPVSLMLKSIFGKDLQDKIPDHFGSPNATTYEFMCFFIFWAASLPFLLVPPHKIRHLFTVKAVLVPFASFGFLIWAIRRAHGRIALGSLTDVQPHGSAFSWAFLRSLMGCMANFSTMVINAPDFSRFSKNPNSALWSQLVCIPFLFSITCLIGILVTAAGYEIYGINYWSPLDVLEKFLQTTYNKGTRAGVFLISFVFAVAQLGTNISANSLSCGTDMSAIFPKFINIKRGSLFCAAMALCICPWNLMATSSKFTMALSAYAIFLSSIAGVVCSDYFVVRRGYIKLTHIYSHQKGSFYMYGNRFGINWRALAAYLCGVAPCLPGFIAEVGAPAIKVSDGAMKLYYLSYWVGYGLSFSSYTALCYFFPVPGCPVNNIIKDKGWFQRWANVDDFEEEWKDTIERDDLVDDNISVYEHEHEKTFI
B2: Ehg1-Cub-LV [S. cerevisiae] / NubG-Hip1 [S. cerevisiae] (parent)
chain 1: B1 chain 1
chain 2: MPRNPLKKEYWADVVDGFKPATSPAFENEKESTTFVTELTSKTDSAFPLSSKDSPGINQTTNDITSSDRFRRNEDTEQEDINNTNLSKDLSVRHLLTLAVGGAIGTGLYVNTGAALSTGGPASLVIDWVIISTCLFTVINSLGELSAAFPVVGGFNVYSMRFIEPSFAFAVNLNYLAQWLVLLPLELVAASITIKYWNDKINSDAWVAIFYATIALANMLDVKSFGETEFVLSMIKILSIIGFTILGIVLSCGGGPHGGYIGGKYWHDPGAFVGHSSGTQFKGLCSVFVTAAFSYSGIEMTAVSAAESKNPRETIPKAAKRTFWLITASYVTILTLIGCLVPSNDPRLLNGSSSVDAASSPLVIAIENGGIKGLPSLMNAIILIAVVSVANSAVYACSRCMVAMAHIGNLPKFLNRVDKRGRPMNAILLTLFFGLLSFVAASDKQAEVFTWLSALSGLSTIFCWMAINLSHIRFRQAMKVQERSLDELPFISQTGVKGSWYGFIVLFLVLIASFWTSLFPLGGSGASAESFFEGYLSFPILIVCYVGHKLYTRNWTLMVKLEDMDLDTGRKQVDLTLRREEMRIERETLAKRSFVTRFLHFWC
B3: Ehg1-Cub-LV [S. cerevisiae] / NubG-Bap2 [S. cerevisiae] (parent)
chain 1: B1 chain 1
chain 2: MLSSEDFGSSGKKETSPDSISIRSFSAGNNFQSSSSEKTYSKQKSGSDKLIHRFADSFKRAEGSTTRTKQINENTSDLEDGVESITSDSKLKKSMKSRHVVMMSLGTGIGTGLLVANAKGLHYGGPAALIIGYILVSFVTYFMIQAAGEMAVTYPTLPANFNAYSSIFISKSFGFATVWLYCFQWLTVLPLELITASMTIQFWNDKINPDIYILIFYVFLVFIHFFGVKAYGETEFIFNCCKILMIAGFIILSIVINCGGAGNDGYIGATYWHNPGAFAGDTSIGRFKNVCYILVTAYFSFGGMELFALSVQEQSNPRKSTPVAAKRSIYRIVVIYLLTMILIGFNVPYNDDQLMGAGGSATHASPYVLAASIHGVKIVPHIINAVILISVVSVANSSLYAGPRLICSLAQQGYAPKFLDYVDREGRPLRALIVCCVFGVIAFVAASSKEEIVFTWLAAIAGLSELFTWTSIMLSHLRFRQAMKVQGRSLDELGYKATTGIWGSIYGVFFNILVFVAQFWVALAPLGNGGKCDAESFFQNYLAFPIWLAFYFGYMVYNRDFTLLNPLDKIDLDFHRRIYDPELMRQEDEENKEKLRNMSLMRKAYHFWC

Variants of: B1
Test: split-ubiquitin yeast two-hybrid (growth of strain NMY51)
Settings: with NubG-Fur4 [S. cerevisiae]; sub-panel Ehg1–Fur4; SC–His medium; 24 h starting at OD600 0.1; NubG-vector control est. 0.40; parent: 1.8; read off a plot

Row | Variant | response
1 | chain 1 MRSFVTNNDIPVGYVTPKAPSLYWPINNSKYNTAFLYYISDIWKFSLYWTLIFNGAFYVTAGVYASLTHRKKAGSVWIFVMYVLYGGVQGLTTGTVMGFLIGAIYRSGLFSMSTWVPLCCAVVQILFDVVLSYSMVGSVM | 0.65 OD600
2 | chain 1 MRSFVTNNDIPVGYVTAKFASLYWPINNSKYNTAFLYYISDIWKFSLYWTLIFNGAFYVTAGVYASLTHRKKAGSVWIFVMYVLYGGVQGLTTGTVMGFLIGAIYRSGLFSMSTWVPLCCAVVQILFDVVLSYSMVGSVM | 0.45 OD600

Same assay, conditions: with NubG-Fur4 [S. cerevisiae]; sub-panel Ehg1–Fur4; SC–His–Ade medium; 24 h starting at OD600 0.1; NubG-vector control est. 0.16; parent: 0.95; read off a plot

Row | Variant | response
3 | chain 1 MRSFVTNNDIPVGYVTPKAPSLYWPINNSKYNTAFLYYISDIWKFSLYWTLIFNGAFYVTAGVYASLTHRKKAGSVWIFVMYVLYGGVQGLTTGTVMGFLIGAIYRSGLFSMSTWVPLCCAVVQILFDVVLSYSMVGSVM | 0.22 OD600
4 | chain 1 MRSFVTNNDIPVGYVTAKFASLYWPINNSKYNTAFLYYISDIWKFSLYWTLIFNGAFYVTAGVYASLTHRKKAGSVWIFVMYVLYGGVQGLTTGTVMGFLIGAIYRSGLFSMSTWVPLCCAVVQILFDVVLSYSMVGSVM | 0.17 OD600

Variants of: B2
Test: as above
Settings: with NubG-Hip1 [S. cerevisiae]; sub-panel Ehg1–Hip1; SC–His medium; 24 h starting at OD600 0.1; NubG-vector control est. 0.48; parent: 1.8; read off a plot

Row | Variant | response
5 | chain 1 MRSFVTNNDIPVGYVTPKAPSLYWPINNSKYNTAFLYYISDIWKFSLYWTLIFNGAFYVTAGVYASLTHRKKAGSVWIFVMYVLYGGVQGLTTGTVMGFLIGAIYRSGLFSMSTWVPLCCAVVQILFDVVLSYSMVGSVM | 1.5 OD600
6 | chain 1 MRSFVTNNDIPVGYVTAKFASLYWPINNSKYNTAFLYYISDIWKFSLYWTLIFNGAFYVTAGVYASLTHRKKAGSVWIFVMYVLYGGVQGLTTGTVMGFLIGAIYRSGLFSMSTWVPLCCAVVQILFDVVLSYSMVGSVM | 1.3 OD600

Same assay, conditions: with NubG-Hip1 [S. cerevisiae]; sub-panel Ehg1–Hip1; SC–His–Ade medium; 24 h starting at OD600 0.1; NubG-vector control est. 0.20; parent: 0.73; read off a plot

Row | Variant | response
7 | chain 1 MRSFVTNNDIPVGYVTPKAPSLYWPINNSKYNTAFLYYISDIWKFSLYWTLIFNGAFYVTAGVYASLTHRKKAGSVWIFVMYVLYGGVQGLTTGTVMGFLIGAIYRSGLFSMSTWVPLCCAVVQILFDVVLSYSMVGSVM | 0.75 OD600
8 | chain 1 MRSFVTNNDIPVGYVTAKFASLYWPINNSKYNTAFLYYISDIWKFSLYWTLIFNGAFYVTAGVYASLTHRKKAGSVWIFVMYVLYGGVQGLTTGTVMGFLIGAIYRSGLFSMSTWVPLCCAVVQILFDVVLSYSMVGSVM | 0.5 OD600

Variants of: B3
Test: as above
Settings: with NubG-Bap2 [S. cerevisiae]; sub-panel Ehg1–Bap2; SC–His medium; 24 h starting at OD600 0.1; NubG-vector control est. 0.46; parent: 1.3; read off a plot

Row | Variant | response
9 | chain 1 MRSFVTNNDIPVGYVTPKAPSLYWPINNSKYNTAFLYYISDIWKFSLYWTLIFNGAFYVTAGVYASLTHRKKAGSVWIFVMYVLYGGVQGLTTGTVMGFLIGAIYRSGLFSMSTWVPLCCAVVQILFDVVLSYSMVGSVM | 0.72 OD600
10 | chain 1 MRSFVTNNDIPVGYVTAKFASLYWPINNSKYNTAFLYYISDIWKFSLYWTLIFNGAFYVTAGVYASLTHRKKAGSVWIFVMYVLYGGVQGLTTGTVMGFLIGAIYRSGLFSMSTWVPLCCAVVQILFDVVLSYSMVGSVM | 0.5 OD600

Same assay, conditions: with NubG-Bap2 [S. cerevisiae]; sub-panel Ehg1–Bap2; SC–His–Ade medium; 24 h starting at OD600 0.1; NubG-vector control est. 0.17; parent: 0.45; read off a plot

Row | Variant | response
11 | chain 1 MRSFVTNNDIPVGYVTPKAPSLYWPINNSKYNTAFLYYISDIWKFSLYWTLIFNGAFYVTAGVYASLTHRKKAGSVWIFVMYVLYGGVQGLTTGTVMGFLIGAIYRSGLFSMSTWVPLCCAVVQILFDVVLSYSMVGSVM | 0.27 OD600
12 | chain 1 MRSFVTNNDIPVGYVTAKFASLYWPINNSKYNTAFLYYISDIWKFSLYWTLIFNGAFYVTAGVYASLTHRKKAGSVWIFVMYVLYGGVQGLTTGTVMGFLIGAIYRSGLFSMSTWVPLCCAVVQILFDVVLSYSMVGSVM | 0.17 OD600
